Source: patent US5635601, “Beta-8 integrin subunit antibodies” (Genentech, Inc., dated 1997)

Key:
alpha-6 integrin subunit = target: T1, alpha-6 integrin subunit (human, UniProt P23229); assay: co-immunoprecipitation from surface-labelled beta-8-transfected 293 cells with monoclonal antibody GoH3
T1 sequence 1: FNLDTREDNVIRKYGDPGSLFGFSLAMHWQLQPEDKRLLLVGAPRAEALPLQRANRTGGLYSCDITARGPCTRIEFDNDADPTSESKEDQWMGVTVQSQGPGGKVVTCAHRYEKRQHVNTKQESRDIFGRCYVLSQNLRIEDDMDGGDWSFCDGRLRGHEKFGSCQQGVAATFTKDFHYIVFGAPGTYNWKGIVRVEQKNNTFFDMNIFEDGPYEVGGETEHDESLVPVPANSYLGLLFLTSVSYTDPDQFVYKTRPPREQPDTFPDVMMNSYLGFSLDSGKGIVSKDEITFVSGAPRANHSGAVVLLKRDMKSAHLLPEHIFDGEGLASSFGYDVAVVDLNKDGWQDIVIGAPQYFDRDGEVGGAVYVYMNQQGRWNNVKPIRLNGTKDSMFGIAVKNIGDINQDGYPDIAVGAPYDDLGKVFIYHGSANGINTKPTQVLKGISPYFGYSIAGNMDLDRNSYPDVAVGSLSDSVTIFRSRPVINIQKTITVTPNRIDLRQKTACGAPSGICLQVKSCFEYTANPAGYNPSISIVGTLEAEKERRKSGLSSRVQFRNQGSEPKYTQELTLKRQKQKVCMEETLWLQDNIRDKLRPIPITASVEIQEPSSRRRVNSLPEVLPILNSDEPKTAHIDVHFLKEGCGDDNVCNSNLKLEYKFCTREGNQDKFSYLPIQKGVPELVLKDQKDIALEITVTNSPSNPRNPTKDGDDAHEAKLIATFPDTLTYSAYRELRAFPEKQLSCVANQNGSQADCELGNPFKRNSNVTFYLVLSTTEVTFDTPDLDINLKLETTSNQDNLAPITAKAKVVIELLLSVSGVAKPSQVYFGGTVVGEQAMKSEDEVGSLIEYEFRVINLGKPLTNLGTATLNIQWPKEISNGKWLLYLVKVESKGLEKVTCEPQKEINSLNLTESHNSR
T1 sequence 2: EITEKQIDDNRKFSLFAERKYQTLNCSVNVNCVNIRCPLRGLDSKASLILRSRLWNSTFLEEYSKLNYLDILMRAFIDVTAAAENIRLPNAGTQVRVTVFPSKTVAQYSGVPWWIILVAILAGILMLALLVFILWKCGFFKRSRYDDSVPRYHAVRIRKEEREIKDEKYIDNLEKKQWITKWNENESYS
Description: (§1) For the immunoprecipitation, four hundred microliters of the labelled cell extract was incubated with 1/100 volume of antibody (ascites, culture supernatant or antiserum) at 4° C. overnight, and immunoprecipitations were carried out using Protein G Sepharose™ 4FF (Pharmacia) after first preclearing with SEPHAROSE™ CL-4B (Pharmacia). Protein G SEPHAROSE™ beads were washed three times with 0.05% Tween 20, 20mM Tris pH 8, 120 mM NaCl, 2 mM CaCl_2. Proteins precipitated from the labelled cell extracts were solubilized by heating in sample buffer and analyzed by separation on a 7.5% SDS-polyacrylamide gel followed by autoradiography.
(§2) These cells endogenously express various alpha integrin subunits, including alpha-v. The beta-8 integrin transfected cell proteins were prepared for immunoprecipitation as described in Example 4.
(§3) Monoclonal antibodies against several different alpha integrin subunits were used in the immunoprecipitations in order to identify with which alpha subunit the beta-8 integrin formed a complex. […]

alpha-3 integrin subunit = target: T2, alpha-3 integrin subunit (human, UniProt P26006); assay: co-immunoprecipitation from surface-labelled beta-8-transfected 293 cells with monoclonal antibody P1B5
T2 sequence 1: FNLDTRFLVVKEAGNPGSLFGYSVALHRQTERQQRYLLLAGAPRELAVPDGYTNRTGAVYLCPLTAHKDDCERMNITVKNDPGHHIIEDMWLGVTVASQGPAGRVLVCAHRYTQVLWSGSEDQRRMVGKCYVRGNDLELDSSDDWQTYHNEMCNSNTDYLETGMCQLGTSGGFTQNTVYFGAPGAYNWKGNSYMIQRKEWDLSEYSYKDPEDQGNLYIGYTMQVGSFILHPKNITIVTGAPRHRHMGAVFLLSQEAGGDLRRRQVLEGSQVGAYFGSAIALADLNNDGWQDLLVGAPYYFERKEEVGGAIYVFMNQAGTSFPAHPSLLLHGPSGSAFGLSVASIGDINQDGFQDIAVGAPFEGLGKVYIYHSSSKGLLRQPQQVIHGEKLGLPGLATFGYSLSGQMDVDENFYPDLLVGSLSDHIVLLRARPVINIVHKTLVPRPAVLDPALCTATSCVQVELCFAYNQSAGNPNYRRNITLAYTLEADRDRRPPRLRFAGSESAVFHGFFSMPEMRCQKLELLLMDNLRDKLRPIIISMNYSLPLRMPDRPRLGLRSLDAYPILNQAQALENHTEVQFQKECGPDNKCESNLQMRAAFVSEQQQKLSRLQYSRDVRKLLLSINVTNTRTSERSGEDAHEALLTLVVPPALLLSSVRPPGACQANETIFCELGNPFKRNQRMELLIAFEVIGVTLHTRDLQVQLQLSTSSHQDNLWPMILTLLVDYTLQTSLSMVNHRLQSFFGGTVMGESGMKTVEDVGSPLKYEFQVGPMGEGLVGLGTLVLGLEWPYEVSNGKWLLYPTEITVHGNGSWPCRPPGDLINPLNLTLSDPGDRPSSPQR
T2 sequence 2: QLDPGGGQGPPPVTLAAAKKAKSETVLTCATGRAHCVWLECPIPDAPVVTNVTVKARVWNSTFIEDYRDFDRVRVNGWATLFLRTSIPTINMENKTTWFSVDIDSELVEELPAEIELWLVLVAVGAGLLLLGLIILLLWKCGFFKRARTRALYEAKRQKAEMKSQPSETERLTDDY
Description: as §1, §2, §3

alpha-5 integrin subunit = alpha-5 integrin subunit (human, UniProt P08648); assay: co-immunoprecipitation from surface-labelled beta-8-transfected 293 cells with monoclonal antibody P1D6
Description: as §1, §2, §3

alpha-2 integrin subunit = alpha-2 integrin subunit (human, UniProt P17301); assay: co-immunoprecipitation from surface-labelled beta-8-transfected 293 cells with monoclonal antibody P1H5
Description: as §1, §2, §3

alpha-1 integrin subunit = alpha-1 integrin subunit (human, UniProt P56199); assay: co-immunoprecipitation from surface-labelled beta-8-transfected 293 cells with monoclonal antibody TS2/7
Description: as §1, §2, §3

Measured: binding result

B1: human beta-8 integrin subunit (receptor)
chain: EDNRCASSNAASCARCLALGPECGWCVQEDFISGGSRSERCDIVSNLISKGCSVDSIEYPSVHVIIPTENEINTQVTPGEVSIQLRPGAEANFMLKVHPLKKYPVDLYYLVDVSASMHNNIEKLNSVGNDLSRKMAFFSRDFRLGFGSYVDKTVSPYISIHPERIHNQCSDYNLDCMPPHGYIHVLSLTENITEFEKAVHRQKISGNIDTPEGGFDAMLQAAVCESHIGWRKEAKRLLLVMTDQTSHLALDSKLAGIVVPNDGNCHLKNNVYVKSTTMEHPSLGQLSEKLIDNNINVIFAVQGKQFHWYKDLLPLLPGTIAGEIESKAANLNNLVVEAYQKLISEVKVQVENQVQGIYFNITAICPDGSRKPGMEGCRNVTSNDEVLFNVTVTMKKCDVTGGKNYAIIKPIGFNETAKIHIHRNCSCQCEDNRGPKGKCVDETFLDSKCFQCDENKCHFDEDQFSSESCKSHKDQPVCSGRGVCVCGKCSCHKIKLGKVYGKYCEKDDFSCPYHHGNLCAGHGECEAGRCQCFSGWEGDRCQCPSAAAQHCVNSKGQVCSGRGTCVCGRCECTDPRSIGRFCEHCPTCYTACKENWNCMQCLHPHNLSQAILDQCKTSCALMEQQHYVDQTSECFSSPSYLRIFFIIFIVTFLIGLLKVLIIRQVILQWNSNKIKSSSDYRVSASKKDKLILQSVCTRAVTYRREKPEEIKMDISKLNAHETFRCNF
modifications: surface labelled with 125I (lactoperoxidase)
no binding: alpha-6 integrin subunit | alpha-3 integrin subunit | alpha-5 integrin subunit | alpha-2 integrin subunit | alpha-1 integrin subunit
